Laboratory results reported in the supplement of paper PMC10567573.

B1: KLHL14 (parent)
chain: CAVLDDSIYLVGGYSWSMGAYKSS
B2: RHOBTB3 (parent)
chain: QLQSMPSRELASMNLDIVDLLKKA

Variants of: B1
Test: protein stability index of a GFP-peptide fusion (GPS, HEK-293T) (PSI 1-6); higher = more stable
Conditions: c terminus: a fixed tail appended
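Further: lentivirally expressed fusions sorted by FACS into six bins by GFP to DsRed ratio, PSI derived from sequencing read proportions per bin multiplied by bin number.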

Protein stability index, by site and new letter:
K22: P 1.79
G12: K 2.13
S7: N 2.59, I 2.49
Y14: Q 2.03
V11: I 3.25, R 1.24, W 1.7
C1: I 2.83, H 1.74, Y 1.82, G 2, W 2.63
A2: K 2.85
M18: F 2.48, Q 2.67, E 2.53
L4: A 1.36
I8: N 1.65, G 1.22, Q 1.11, F 2.55
Y9: I 1.86
W16: G 1.95, S 2.01, T 1.74, P 2.38
G13: K 1.51, C 2.36, I 2.92, S 1.95, Y 1.73
D6: M 4.25, V 1.97
L10: G 2.23, H 1.59, D 1.94
S23: C 2.2
D5: I 2.19, W 3.27, K 3.02
S17: A 3.94, Q 2.79, P 1.54
V3: A 2.03, N 2.57, S 2.3, T 2.94, L 2.21
G19: E 1.22, N 2.06, V 1.97, W 3.29, Q 1.62

Variants of: B2
Test: as above
Conditions: c terminus: a fixed tail appended

Protein stability index, by site and new letter:
D19: N 3.15, W 2.16, A 3, T 2.85, G 2.52, M 2.09, S 3.45, E 3.37, K 3.08, V 2.16, H 2.93, P 2.83, R 2.99, C 2.96, I 1.86, F 2.01, L 1.48, Q 3.58, Y 2.28
L21: F 3, D 4.67, Y 2.96, G 3.91, C 3.47, R 3.93, S 4.12, W 3.35, P 3.84, A 3.47, T 3.74, K 3.01, Q 3.87, N 3.27, M 4.02, I 3.56, V 4.12, H 4.33
K22: P 3.57, S 3.55, L 2.07, E 4.71, Y 2.61, H 3.67, Q 3.93, D 4.32, R 3.21, N 4.23, T 3.74, W 2.04, M 2.9, A 3.01, V 2.15, I 2.32, G 3.75, C 2.76, F 2.29
K23: V 2.81, H 3.05, M 2.32, W 1.3, L 2.58, F 2.33, A 2.92, Q 3.36, S 3.05, I 2.48, N 3.97, R 3.52, C 2.57, P 3.22, Y 2.71, T 3.4, G 3.16, E 3.69, D 4.03
A24: L 3.56, M 3.39, G 3.92, T 3.95, W 4.13, Y 3.35, H 3.77, K 3.54, E 4.56, D 4.65, I 2.98, N 4.14, C 3.14, F 3.41, V 3.34, P 3.92, R 3.11, S 3.47, Q 3.49
L20: I 3.42, N 3.71, D 4.68, Q 3.9, F 3.42, T 3.96, G 4.62, S 4.06, V 2.9, M 3.75, W 3.51, K 4.33, Y 3.95, A 3.52, R 3.94, P 4.31, E 4.84, C 3.86, H 3.63
